B1: RNA-binding protein FUS (Homo sapiens), P35637 (parent)
chain: MASNDYTQQATQSYGAYPTQPGQGYSQQSSQPYGQQSYSGYSQSTDTSGYGQSSYSSYGQSQNTGYGTQSTPQGYGSTGGYGSSQSSQSSYGQQSSYPGYGQQPAPSSTSGSYGSSSQSSSYGQPQSGSYSQQPSYGGQQQSYGQQQSYNPPQGYGQQNQYNSSSGGGGGGGGGGNYGQDQSSMSSGGGSGGGYGNQDQSGGGGSGGYGQQDRGGRGRGGSGGGGGGGGGGYNRSSGGYEPRGRGGGRGGRGGMGGSDRGGFNKFGGPRDQGSRHDSEQDNSDNNTIFVQGLGENVTIESVADYFKQIGIIKTNKKTGQPMINLYTDRETGKLKGEATVSFDDPPSAKAAIDWFDGKEFSGNPIKVSFATRRADFNRGGGNGRGGRGRGGPMGRGGYGGGGSGGGGRGGFPSGGGGGGGQQRAGDWKCPNPTCENMNFSWRNECNQCKAPKPDGPGGGPGGSHMGGNYGDDRRGGRGGYDRGGYRGRGGDRGGFRGGRGGGDRGGFGPGKMDSRGEHRQDRRERPY

Variants of: B1
Conditions: with TNPO1, Q92973-2
Sequence of TNPO1, Q92973-2 (Q92973 9-898): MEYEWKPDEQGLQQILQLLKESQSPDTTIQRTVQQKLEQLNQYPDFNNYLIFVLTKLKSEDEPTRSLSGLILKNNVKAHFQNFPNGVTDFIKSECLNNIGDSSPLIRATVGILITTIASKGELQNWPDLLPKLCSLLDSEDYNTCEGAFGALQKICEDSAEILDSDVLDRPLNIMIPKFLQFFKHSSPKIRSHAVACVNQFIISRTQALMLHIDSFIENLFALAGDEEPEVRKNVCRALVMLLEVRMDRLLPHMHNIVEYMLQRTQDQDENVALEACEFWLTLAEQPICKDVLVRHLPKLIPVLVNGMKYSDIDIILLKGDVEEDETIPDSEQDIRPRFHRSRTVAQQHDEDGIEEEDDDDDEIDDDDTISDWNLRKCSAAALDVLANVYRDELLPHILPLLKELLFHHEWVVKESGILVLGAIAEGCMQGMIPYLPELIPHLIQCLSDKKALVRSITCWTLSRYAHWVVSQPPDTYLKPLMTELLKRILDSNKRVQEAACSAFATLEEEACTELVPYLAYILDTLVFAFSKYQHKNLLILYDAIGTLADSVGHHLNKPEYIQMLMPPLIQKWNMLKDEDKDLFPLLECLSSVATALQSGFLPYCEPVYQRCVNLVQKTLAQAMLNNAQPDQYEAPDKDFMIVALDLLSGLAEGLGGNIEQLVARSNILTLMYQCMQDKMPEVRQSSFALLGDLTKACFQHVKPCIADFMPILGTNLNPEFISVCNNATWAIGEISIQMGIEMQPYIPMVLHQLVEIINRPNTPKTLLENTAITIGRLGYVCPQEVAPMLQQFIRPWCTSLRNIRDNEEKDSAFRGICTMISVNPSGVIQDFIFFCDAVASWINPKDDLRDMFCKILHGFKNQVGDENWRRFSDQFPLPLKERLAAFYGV

Variant	effect of a mutation on the interaction
MASNDYTQQATQSYGAYPTQPGQGYSQQSSQPYGQQSYSGYSQSTDTSGYGQSSYSSYGQSQNTGYGTQSTPQGYGSTGGYGSSQSSQSSYGQQSSYPGYGQQPAPSSTSGSYGSSSQSSSYGQPQSGSYSQQPSYGGQQQSYGQQQSYNPPQGYGQQNQYNSSSGGGGGGGGGGNYGQDQSSMSSGGGSGGGYGNQDQSGGGGSGGYGQQDRGGRGRGGSGGGGGGGGGGYNRSSGGYEPRGRGGGRGGRGGMGGSDRGGFNKFGGPRDQGSRHDSEQDNSDNNTIFVQGLGENVTIESVADYFKQIGIIKTNKKTGQPMINLYTDRETGKLKGEATVSFDDPPSAKAAIDWFDGKEFSGNPIKVSFATRRADFNRGGGNGRGGRGRGGPMGRGGYGGGGSGGGGRGGFPSGGGGGGGQQRAGDWKCPNPTCENMNFSWRNECNQCKAPKPDGPGGGPGGSHMGGNYGDDRRGGRGGYDRGGYRGRGGDRGGFRGGRGGGDRGGFGAAAADSRGEHRQDRRERPY [P508A;G509A;K510A;M511A]	decreasing interaction strength
MASNDYTQQATQSYGAYPTQPGQGYSQQSSQPYGQQSYSGYSQSTDTSGYGQSSYSSYGQSQNTGYGTQSTPQGYGSTGGYGSSQSSQSSYGQQSSYPGYGQQPAPSSTSGSYGSSSQSSSYGQPQSGSYSQQPSYGGQQQSYGQQQSYNPPQGYGQQNQYNSSSGGGGGGGGGGNYGQDQSSMSSGGGSGGGYGNQDQSGGGGSGGYGQQDRGGRGRGGSGGGGGGGGGGYNRSSGGYEPRGRGGGRGGRGGMGGSDRGGFNKFGGPRDQGSRHDSEQDNSDNNTIFVQGLGENVTIESVADYFKQIGIIKTNKKTGQPMINLYTDRETGKLKGEATVSFDDPPSAKAAIDWFDGKEFSGNPIKVSFATRRADFNRGGGNGRGGRGRGGPMGRGGYGGGGSGGGGRGGFPSGGGGGGGQQRAGDWKCPNPTCENMNFSWRNECNQCKAPKPDGPGGGPGGSHMGGNYGDDRRGGRGGYDRGGYRGRGGDRGGFRGGRGGGDRGGFGPGKMDSRGEHRQDAAERPY [R521A;R522A]	decreasing interaction strength
MASNDYTQQATQSYGAYPTQPGQGYSQQSSQPYGQQSYSGYSQSTDTSGYGQSSYSSYGQSQNTGYGTQSTPQGYGSTGGYGSSQSSQSSYGQQSSYPGYGQQPAPSSTSGSYGSSSQSSSYGQPQSGSYSQQPSYGGQQQSYGQQQSYNPPQGYGQQNQYNSSSGGGGGGGGGGNYGQDQSSMSSGGGSGGGYGNQDQSGGGGSGGYGQQDRGGRGRGGSGGGGGGGGGGYNRSSGGYEPRGRGGGRGGRGGMGGSDRGGFNKFGGPRDQGSRHDSEQDNSDNNTIFVQGLGENVTIESVADYFKQIGIIKTNKKTGQPMINLYTDRETGKLKGEATVSFDDPPSAKAAIDWFDGKEFSGNPIKVSFATRRADFNRGGGNGRGGRGRGGPMGRGGYGGGGSGGGGRGGFPSGGGGGGGQQRAGDWKCPNPTCENMNFSWRNECNQCKAPKPDGPGGGPGGSHMGGNYGDDRRGGRGGYDRGGYRGRGGDRGGFRGGRGGGDRGGFGPGKMDSAGEHAQDAAERPY [R514A;R518A;R521A;R522A]	disrupting interaction strength
MASNDYTQQATQSYGAYPTQPGQGYSQQSSQPYGQQSYSGYSQSTDTSGYGQSSYSSYGQSQNTGYGTQSTPQGYGSTGGYGSSQSSQSSYGQQSSYPGYGQQPAPSSTSGSYGSSSQSSSYGQPQSGSYSQQPSYGGQQQSYGQQQSYNPPQGYGQQNQYNSSSGGGGGGGGGGNYGQDQSSMSSGGGSGGGYGNQDQSGGGGSGGYGQQDRGGRGRGGSGGGGGGGGGGYNRSSGGYEPRGRGGGRGGRGGMGGSDRGGFNKFGGPRDQGSRHDSEQDNSDNNTIFVQGLGENVTIESVADYFKQIGIIKTNKKTGQPMINLYTDRETGKLKGEATVSFDDPPSAKAAIDWFDGKEFSGNPIKVSFATRRADFNRGGGNGRGGRGRGGPMGRGGYGGGGSGGGGRGGFPSGGGGGGGQQRAGDWKCPNPTCENMNFSWRNECNQCKAPKPDGPGGGPGGSHMGGNYGDDRRGGRGGYDRGGYRGRGGDRGGFRGGRGGGDRGGFGPGKMDSAGEHAQDRRERPY [R514A;R518A]	decreasing interaction strength
MASNDYTQQATQSYGAYPTQPGQGYSQQSSQPYGQQSYSGYSQSTDTSGYGQSSYSSYGQSQNTGYGTQSTPQGYGSTGGYGSSQSSQSSYGQQSSYPGYGQQPAPSSTSGSYGSSSQSSSYGQPQSGSYSQQPSYGGQQQSYGQQQSYNPPQGYGQQNQYNSSSGGGGGGGGGGNYGQDQSSMSSGGGSGGGYGNQDQSGGGGSGGYGQQDRGGRGRGGSGGGGGGGGGGYNRSSGGYEPRGRGGGRGGRGGMGGSDRGGFNKFGGPRDQGSRHDSEQDNSDNNTIFVQGLGENVTIESVADYFKQIGIIKTNKKTGQPMINLYTDRETGKLKGEATVSFDDPPSAKAAIDWFDGKEFSGNPIKVSFATRRADFNRGGGNGRGGRGRGGPMGRGGYGGGGSGGGGRGGFPSGGGGGGGQQRAGDWKCPNPTCENMNFSWRNECNQCKAPKPDGPGGGPGGSHMGGNYGDDRRGGRGGYDRGGYRGRGGDRGGFRGGRGGGDRGGFGPGKMDSRGEHRQDRRERAY [P525A]	decreasing interaction strength
MASNDYTQQATQSYGAYPTQPGQGYSQQSSQPYGQQSYSGYSQSTDTSGYGQSSYSSYGQSQNTGYGTQSTPQGYGSTGGYGSSQSSQSSYGQQSSYPGYGQQPAPSSTSGSYGSSSQSSSYGQPQSGSYSQQPSYGGQQQSYGQQQSYNPPQGYGQQNQYNSSSGGGGGGGGGGNYGQDQSSMSSGGGSGGGYGNQDQSGGGGSGGYGQQDRGGRGRGGSGGGGGGGGGGYNRSSGGYEPRGRGGGRGGRGGMGGSDRGGFNKFGGPRDQGSRHDSEQDNSDNNTIFVQGLGENVTIESVADYFKQIGIIKTNKKTGQPMINLYTDRETGKLKGEATVSFDDPPSAKAAIDWFDGKEFSGNPIKVSFATRRADFNRGGGNGRGGRGRGGPMGRGGYGGGGSGGGGRGGFPSGGGGGGGQQRAGDWKCPNPTCENMNFSWRNECNQCKAPKPDGPGGGPGGSHMGGNYGDDRRGGRGGYDRGGYRGRGGDRGGFRGGRGGGDRGGFGPGKMDSRGEHRQDRRERLY [P525L]	decreasing interaction strength

— IntAct's records for PubMed 22778397
